*1 amine or outer side, *2 acyl side, *3 side chain or, on linkers, in order; H or OH if unused. Bridges are numbered along the chain shown (N, C = ends). [ ]: non-standard residue; d: D form. The star is where a group is joined. C20 diacid = O=C(O)CCCCCCCCCCCCCCCCCCC(=O)*; γGlu = O=C(O)[C@H](CCC(=O)[*:2])N[*:1]; Hyp = O=C(O)[C@@H]1C[C@@H](O)CN1; NMeI = CC[C@H](C)[C@H](NC)C(=O)O; Sar = CNCC(=O)O
T1: human amylin receptor 3 (hAMYR3), hCTR2 co-expressed with human receptor activity modifying protein 3 (hRAMP3) (human, UniProt P30988 25-474; O60896 24-148)
T1 sequence (looked up) 1: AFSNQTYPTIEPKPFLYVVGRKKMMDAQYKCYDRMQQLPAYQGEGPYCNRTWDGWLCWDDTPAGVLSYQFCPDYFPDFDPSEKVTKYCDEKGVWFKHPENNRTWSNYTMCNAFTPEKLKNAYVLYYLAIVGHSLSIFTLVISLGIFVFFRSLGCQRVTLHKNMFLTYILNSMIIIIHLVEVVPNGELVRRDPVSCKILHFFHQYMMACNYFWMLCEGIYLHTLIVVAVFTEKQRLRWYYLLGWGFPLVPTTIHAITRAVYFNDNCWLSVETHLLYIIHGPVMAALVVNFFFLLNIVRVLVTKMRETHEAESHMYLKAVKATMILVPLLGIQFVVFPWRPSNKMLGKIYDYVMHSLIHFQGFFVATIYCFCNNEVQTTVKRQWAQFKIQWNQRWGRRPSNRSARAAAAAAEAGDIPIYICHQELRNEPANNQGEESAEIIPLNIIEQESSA
T1 sequence (looked up) 2: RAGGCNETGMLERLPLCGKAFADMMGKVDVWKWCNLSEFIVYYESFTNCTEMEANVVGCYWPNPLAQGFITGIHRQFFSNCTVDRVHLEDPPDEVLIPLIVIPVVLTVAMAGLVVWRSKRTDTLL


Target: T1, human amylin receptor 3 (hAMYR3), hCTR2 …
Assay: cell-based or functional assay

| hAMYR3 EC50 (nM); cAMP induction [nM] | Binder |
| --- | --- |
| 0.11 | {C20 diacid}-[γGlu]RCGTATCATERLAHFLNRSSF[Sar]A[NMeI]LSSTEVGSSTP-NH2 (disulfide 3-8; SMILES CC[C@H](C)[C@@H](C(=O)N[C@@H](CC(C)C)C(=O)N[C@@H](CO)C(=O)N[C@@H](CO)C(=O)N[C@H](C(=O)N[C@@H](CCC(=O)O)C(=O)N[C@H](C(=O)NCC(=O)N[C@@H](CO)C(=O)N[C@@H](CO)C(=O)N[C@H](C(=O)N1CCC[C@H]1C(N)=O)[C@@H](C)O)C(C)C)[C@@H](C)O)N(C)C(=O)[C@H](C)NC(=O)CN(C)C(=O)[C@H](Cc1ccccc1)NC(=O)[C@H](CO)NC(=O)[C@H](CO)NC(=O)[C@H](CCCNC(=N)N)NC(=O)[C@H](CC(N)=O)NC(=O)[C@H](CC(C)C)NC(=O)[C@H](Cc1ccccc1)NC(=O)[C@H](Cc1c[nH]cn1)NC(=O)[C@H](C)NC(=O)[C@H](CC(C)C)NC(=O)[C@H](CCCNC(=N)N)NC(=O)[C@H](CCC(=O)O)NC(=O)[C@@H](NC(=O)[C@H](C)NC(=O)[C@@H]1CSSC[C@H](NC(=O)[C@H](CCCNC(=N)N)NC(=O)CC[C@H](NC(=O)CCCCCCCCCCCCCCCCCCC(=O)O)C(=O)O)C(=O)NCC(=O)N[C@@H]([C@@H](C)O)C(=O)N[C@@H](C)C(=O)N[C@@H]([C@@H](C)O)C(=O)N1)[C@@H](C)O) [[19CD]-isoGlu-R-C( )-GTAT-C( )-ATERLAHFLNRSSF-Gly(Me)-A-Ile(Me)-LSSTEVGSSTP-NH2 (Compd. 35)] |
| 0.36 | {C20 diacid}-[γGlu]RCGTATCATERLAHFLERSSF[Sar]A[NMeI]LSSTEVGSSTP-NH2 (disulfide 3-8; SMILES CC[C@H](C)[C@@H](C(=O)N[C@@H](CC(C)C)C(=O)N[C@@H](CO)C(=O)N[C@@H](CO)C(=O)N[C@H](C(=O)N[C@@H](CCC(=O)O)C(=O)N[C@H](C(=O)NCC(=O)N[C@@H](CO)C(=O)N[C@@H](CO)C(=O)N[C@H](C(=O)N1CCC[C@H]1C(N)=O)[C@@H](C)O)C(C)C)[C@@H](C)O)N(C)C(=O)[C@H](C)NC(=O)CN(C)C(=O)[C@H](Cc1ccccc1)NC(=O)[C@H](CO)NC(=O)[C@H](CO)NC(=O)[C@H](CCCNC(=N)N)NC(=O)[C@H](CCC(=O)O)NC(=O)[C@H](CC(C)C)NC(=O)[C@H](Cc1ccccc1)NC(=O)[C@H](Cc1c[nH]cn1)NC(=O)[C@H](C)NC(=O)[C@H](CC(C)C)NC(=O)[C@H](CCCNC(=N)N)NC(=O)[C@H](CCC(=O)O)NC(=O)[C@@H](NC(=O)[C@H](C)NC(=O)[C@@H]1CSSC[C@H](NC(=O)[C@H](CCCNC(=N)N)NC(=O)CC[C@H](NC(=O)CCCCCCCCCCCCCCCCCCC(=O)O)C(=O)O)C(=O)NCC(=O)N[C@@H]([C@@H](C)O)C(=O)N[C@@H](C)C(=O)N[C@@H]([C@@H](C)O)C(=O)N1)[C@@H](C)O) [[19CD]-isoGlu-R-C( )-GTAT-C( )-ATERLAHFLERSSF-Gly(Me)-A-Ile(Me)-LSSTEVGSSTP-NH2 (Compd. 36)] |
| 0.12 | {C20 diacid}-[γGlu]RCGTATCATERLAHFLHRSSF[Sar]A[NMeI]LSSTEVGSST[Hyp]-NH2 (disulfide 3-8; SMILES CC[C@H](C)[C@@H](C(=O)N[C@@H](CC(C)C)C(=O)N[C@@H](CO)C(=O)N[C@@H](CO)C(=O)N[C@H](C(=O)N[C@@H](CCC(=O)O)C(=O)N[C@H](C(=O)NCC(=O)N[C@@H](CO)C(=O)N[C@@H](CO)C(=O)N[C@H](C(=O)N1C[C@H](O)C[C@H]1C(N)=O)[C@@H](C)O)C(C)C)[C@@H](C)O)N(C)C(=O)[C@H](C)NC(=O)CN(C)C(=O)[C@H](Cc1ccccc1)NC(=O)[C@H](CO)NC(=O)[C@H](CO)NC(=O)[C@H](CCCNC(=N)N)NC(=O)[C@H](Cc1c[nH]cn1)NC(=O)[C@H](CC(C)C)NC(=O)[C@H](Cc1ccccc1)NC(=O)[C@H](Cc1c[nH]cn1)NC(=O)[C@H](C)NC(=O)[C@H](CC(C)C)NC(=O)[C@H](CCCNC(=N)N)NC(=O)[C@H](CCC(=O)O)NC(=O)[C@@H](NC(=O)[C@H](C)NC(=O)[C@@H]1CSSC[C@H](NC(=O)[C@H](CCCNC(=N)N)NC(=O)CC[C@H](NC(=O)CCCCCCCCCCCCCCCCCCC(=O)O)C(=O)O)C(=O)NCC(=O)N[C@@H]([C@@H](C)O)C(=O)N[C@@H](C)C(=O)N[C@@H]([C@@H](C)O)C(=O)N1)[C@@H](C)O) [[19CD]-isoGlu-R-C( )-GTAT-C( )-ATERLAHFLHRSSF-Gly(Me)-A-Ile(Me)-LSSTEVGSST-Hyp-NH2 (Compd. 30)] |
| 0.12 | {C20 diacid}-[γGlu]RCGTATCATERLAHFLQRSSF[Sar]A[NMeI]LSSTEVGSSTP-NH2 (disulfide 3-8; SMILES CC[C@H](C)[C@@H](C(=O)N[C@@H](CC(C)C)C(=O)N[C@@H](CO)C(=O)N[C@@H](CO)C(=O)N[C@H](C(=O)N[C@@H](CCC(=O)O)C(=O)N[C@H](C(=O)NCC(=O)N[C@@H](CO)C(=O)N[C@@H](CO)C(=O)N[C@H](C(=O)N1CCC[C@H]1C(N)=O)[C@@H](C)O)C(C)C)[C@@H](C)O)N(C)C(=O)[C@H](C)NC(=O)CN(C)C(=O)[C@H](Cc1ccccc1)NC(=O)[C@H](CO)NC(=O)[C@H](CO)NC(=O)[C@H](CCCNC(=N)N)NC(=O)[C@H](CCC(N)=O)NC(=O)[C@H](CC(C)C)NC(=O)[C@H](Cc1ccccc1)NC(=O)[C@H](Cc1c[nH]cn1)NC(=O)[C@H](C)NC(=O)[C@H](CC(C)C)NC(=O)[C@H](CCCNC(=N)N)NC(=O)[C@H](CCC(=O)O)NC(=O)[C@@H](NC(=O)[C@H](C)NC(=O)[C@@H]1CSSC[C@H](NC(=O)[C@H](CCCNC(=N)N)NC(=O)CC[C@H](NC(=O)CCCCCCCCCCCCCCCCCCC(=O)O)C(=O)O)C(=O)NCC(=O)N[C@@H]([C@@H](C)O)C(=O)N[C@@H](C)C(=O)N[C@@H]([C@@H](C)O)C(=O)N1)[C@@H](C)O) [[19CD]-isoGlu-R-C( )-GTAT-C( )-ATERLAHFLQRSSF-Gly(Me)-A-Ile(Me)-LSSTEVGSSTP-NH2 (Compd. 34)] |
| 0.23 | {C20 diacid}-[γGlu]RCGTATCATERLAHFLQRSSF[Sar]A[NMeI]LSSTEVGSFT[Hyp]-NH2 (disulfide 3-8; SMILES CC[C@H](C)[C@@H](C(=O)N[C@@H](CC(C)C)C(=O)N[C@@H](CO)C(=O)N[C@@H](CO)C(=O)N[C@H](C(=O)N[C@@H](CCC(=O)O)C(=O)N[C@H](C(=O)NCC(=O)N[C@@H](CO)C(=O)N[C@@H](Cc1ccccc1)C(=O)N[C@H](C(=O)N1C[C@H](O)C[C@H]1C(N)=O)[C@@H](C)O)C(C)C)[C@@H](C)O)N(C)C(=O)[C@H](C)NC(=O)CN(C)C(=O)[C@H](Cc1ccccc1)NC(=O)[C@H](CO)NC(=O)[C@H](CO)NC(=O)[C@H](CCCNC(=N)N)NC(=O)[C@H](CCC(N)=O)NC(=O)[C@H](CC(C)C)NC(=O)[C@H](Cc1ccccc1)NC(=O)[C@H](Cc1c[nH]cn1)NC(=O)[C@H](C)NC(=O)[C@H](CC(C)C)NC(=O)[C@H](CCCNC(=N)N)NC(=O)[C@H](CCC(=O)O)NC(=O)[C@@H](NC(=O)[C@H](C)NC(=O)[C@@H]1CSSC[C@H](NC(=O)[C@H](CCCNC(=N)N)NC(=O)CC[C@H](NC(=O)CCCCCCCCCCCCCCCCCCC(=O)O)C(=O)O)C(=O)NCC(=O)N[C@@H]([C@@H](C)O)C(=O)N[C@@H](C)C(=O)N[C@@H]([C@@H](C)O)C(=O)N1)[C@@H](C)O) [[19CD]-isoGlu-R-C( )-GTAT-C( )-ATERLAHFLQRSSF-Gly(Me)-A-Ile(Me)-LSSTEVGSFT-Hyp-NH2 (Compd. 32)] |
| 0.29 | {C20 diacid-γGlu}-RCGTATCATERLAHFLVRSSF[Sar]A[NMeI]LSSTEVGSST[Hyp]-NH2 (disulfide 2-7; SMILES CC[C@H](C)[C@@H](C(=O)N[C@@H](CC(C)C)C(=O)N[C@@H](CO)C(=O)N[C@@H](CO)C(=O)N[C@H](C(=O)N[C@@H](CCC(=O)O)C(=O)N[C@H](C(=O)NCC(=O)N[C@@H](CO)C(=O)N[C@@H](CO)C(=O)N[C@H](C(=O)N1C[C@H](O)C[C@H]1C(N)=O)[C@@H](C)O)C(C)C)[C@@H](C)O)N(C)C(=O)[C@H](C)NC(=O)CN(C)C(=O)[C@H](Cc1ccccc1)NC(=O)[C@H](CO)NC(=O)[C@H](CO)NC(=O)[C@H](CCCNC(=N)N)NC(=O)[C@@H](NC(=O)[C@H](CC(C)C)NC(=O)[C@H](Cc1ccccc1)NC(=O)[C@H](Cc1c[nH]cn1)NC(=O)[C@H](C)NC(=O)[C@H](CC(C)C)NC(=O)[C@H](CCCNC(=N)N)NC(=O)[C@H](CCC(=O)O)NC(=O)[C@@H](NC(=O)[C@H](C)NC(=O)[C@@H]1CSSC[C@H](NC(=O)[C@H](CCCNC(=N)N)NC(=O)CC[C@H](NC(=O)CCCCCCCCCCCCCCCCCCC(=O)O)C(=O)O)C(=O)NCC(=O)N[C@@H]([C@@H](C)O)C(=O)N[C@@H](C)C(=O)N[C@@H]([C@@H](C)O)C(=O)N1)[C@@H](C)O)C(C)C) [[19CD]-isoGlu-R-C( )-GTAT-C( )-ATERLAHFLVRSSF-Gly(Me)-A-Ile(Me)-LSSTEVGSST-Hyp-NH2 (Compd. 31)] |
| 0.15 | {C20 diacid}-[γGlu]RCGTATCATERLAHFLNRSSF[Sar]A[NMeI]LSSTEVGSFT[Hyp]-NH2 (disulfide 3-8; SMILES CC[C@H](C)[C@@H](C(=O)N[C@@H](CC(C)C)C(=O)N[C@@H](CO)C(=O)N[C@@H](CO)C(=O)N[C@H](C(=O)N[C@@H](CCC(=O)O)C(=O)N[C@H](C(=O)NCC(=O)N[C@@H](CO)C(=O)N[C@@H](Cc1ccccc1)C(=O)N[C@H](C(=O)N1C[C@H](O)C[C@H]1C(N)=O)[C@@H](C)O)C(C)C)[C@@H](C)O)N(C)C(=O)[C@H](C)NC(=O)CN(C)C(=O)[C@H](Cc1ccccc1)NC(=O)[C@H](CO)NC(=O)[C@H](CO)NC(=O)[C@H](CCCNC(=N)N)NC(=O)[C@H](CC(N)=O)NC(=O)[C@H](CC(C)C)NC(=O)[C@H](Cc1ccccc1)NC(=O)[C@H](Cc1c[nH]cn1)NC(=O)[C@H](C)NC(=O)[C@H](CC(C)C)NC(=O)[C@H](CCCNC(=N)N)NC(=O)[C@H](CCC(=O)O)NC(=O)[C@@H](NC(=O)[C@H](C)NC(=O)[C@@H]1CSSC[C@H](NC(=O)[C@H](CCCNC(=N)N)NC(=O)CC[C@H](NC(=O)CCCCCCCCCCCCCCCCCCC(=O)O)C(=O)O)C(=O)NCC(=O)N[C@@H]([C@@H](C)O)C(=O)N[C@@H](C)C(=O)N[C@@H]([C@@H](C)O)C(=O)N1)[C@@H](C)O) [[19CD]-isoGlu-R-C( )-GTAT-C( )-ATERLAHFLNRSSF-Gly(Me)-A-Ile(Me)-LSSTEVGSFT-Hyp-NH2 (Compd. 33)] |
